From paper PMC6613885

Biological target: GST-LC3A
Experiment: GST-pulldown, in vitro-translated 35S-labelled protein, autoradiography quantification
Conditions: Means ± SD of 3 independent experiments, read off a plot

Row | Substance | response (parent: est. 2.6) [% binding] | response (parent: est. 1.7) [% binding] | response (parent: est. 0.5) [% binding]
1 | Myc-tagged ATG14, full-length, in vitro translated (from UniProt Q6ZNE5) W435A; L438A | 1.2 | – | –
2 | Myc-tagged ATG14, full-length, in vitro translated (from UniProt Q6ZNE5) F64A; F67A; W435A; L438A | 1 | – | –
3 | Myc-tagged PIK3C3, full-length, in vitro translated (from UniProt Q8NEB9) F198A; I201A | – | 1.8 | –
4 | Myc-tagged BECN1, full-length, in vitro translated (from UniProt Q14457) S90E; S93E; S96E | – | – | 0.6
5 | Myc-tagged PIK3C3, full-length, in vitro translated (from UniProt Q8NEB9) F250A; V253A | – | 1.2 | –
6 | Myc-tagged BECN1, full-length, in vitro translated (from UniProt Q14457) F97A; I100A | – | – | 0.25
7 | Myc-tagged PIK3C3, full-length, in vitro translated (from UniProt Q8NEB9) F198A; I201A; F250A; V253A | – | 1 | –
8 | Myc-tagged ATG14, full-length, in vitro translated (from UniProt Q6ZNE5) F64A; F67A | 2.3 | – | –
9 | Myc-tagged BECN1, full-length, in vitro translated (from UniProt Q14457) F97A; I100A; S90E; S93E; S96E | – | – | 0.25
